From publication PMC6194124, “Mannosidase activity of EDEM1 and EDEM2 depends on an unfolded state of their glycoprotein substrates” (Communications Biology, 2018)

Biological target: T1, EDEM1-HA (UniProt Q925U4 1-652)
T1 construct: source: HEK 293, transiently transfected (pCMVsport2), in lysate
T1 sequence (looked up): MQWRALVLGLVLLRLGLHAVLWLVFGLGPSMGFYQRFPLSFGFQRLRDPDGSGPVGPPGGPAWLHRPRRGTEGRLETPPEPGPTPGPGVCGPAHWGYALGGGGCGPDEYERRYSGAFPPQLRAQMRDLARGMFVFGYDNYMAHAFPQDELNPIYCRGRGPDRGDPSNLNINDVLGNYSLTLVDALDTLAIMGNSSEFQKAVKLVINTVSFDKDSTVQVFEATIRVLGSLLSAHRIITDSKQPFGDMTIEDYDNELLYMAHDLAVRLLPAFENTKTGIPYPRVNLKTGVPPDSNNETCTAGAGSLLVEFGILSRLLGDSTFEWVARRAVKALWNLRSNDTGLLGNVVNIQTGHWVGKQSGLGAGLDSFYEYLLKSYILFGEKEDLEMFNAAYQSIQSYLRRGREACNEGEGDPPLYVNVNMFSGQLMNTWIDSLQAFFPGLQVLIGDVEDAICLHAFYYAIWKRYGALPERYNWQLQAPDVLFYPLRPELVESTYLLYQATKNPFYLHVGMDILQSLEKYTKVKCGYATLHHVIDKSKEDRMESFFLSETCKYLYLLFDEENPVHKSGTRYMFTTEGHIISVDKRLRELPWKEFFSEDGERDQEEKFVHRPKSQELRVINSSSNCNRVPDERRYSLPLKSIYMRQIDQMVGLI
Assay: co-IP; HEK 293 cells expressing EDEM1-HA or EDEM2-HA with FLAG-TXNDC11 or FLAG-PDI; lysed in mild conditions (1% NP-40, 50 mM Tris/HCl pH 8, 150 mM NaCl); immunoprecipitated with anti-EDEM1 or anti-EDEM2, immunoblotted with anti-FLAG
Conditions: partners not purified

B1: FLAG-PDI (enzyme)
chain: not shown
notes: mammalian protein disulfide isomerase (PDI); vector a gift from E. Avezov; also called protein disulfide isomerase; source: HEK 293, transiently transfected, in lysate
  fold weaker coIP than with TXNDC11: ~15 fold
